Values belong to the binder of their own block, whether it stands above or below them.
What was measured:
[1] = biological target: T1, HLA-E (as used in the in vitro peptide binding assay and in immunoprecipitation) (human), P13747; test: in vitro peptide binding assay (ratio of optical densities); row .221-A*0201
[2] = biological target: T1, HLA-E (as used in the in vitro peptide …); test: in vitro peptide binding assay (ratio of optical densities); row .221-A*0211
[3] = biological target: T1, HLA-E (as used in the in vitro peptide …); test: in vitro peptide binding assay (ratio of optical densities); row .221-A*2403
[4] = biological target: T1, HLA-E (as used in the in vitro peptide …); test: in vitro peptide binding assay (ratio of optical densities); row .221-A*2501
[5] = biological target: T1, HLA-E (as used in the in vitro peptide …); test: in vitro peptide binding assay (ratio of optical densities); row .221-A*3601
[6] = biological target: T1, HLA-E (as used in the in vitro peptide …); test: in vitro peptide binding assay (ratio of optical densities); row .221-B*5501

Concentration of peptide required to obtain 50% of binding to HLA-E [1]: 0.06 µM
Concentration of peptide required to obtain 50% of binding to HLA-E [2]: 0.06 µM
Concentration of peptide required to obtain 50% of binding to HLA-E [3]: 0.06 µM
Concentration of peptide required to obtain 50% of binding to HLA-E [4]: 0.06 µM
B1: HLA leader sequence peptide (residues 3-11) … (peptide)
peptide: VMAPRTLVL
modifications: not checked

Concentration of peptide required to obtain 50% of binding to HLA-E [5]: 0.3 µM
B2: HLA leader sequence peptide (residues 3-11) … (peptide)
peptide: VMAPRTLLL
modifications: not checked

Concentration of peptide required to obtain 50% of binding to HLA-E [6]: > 100 µM
B3: HLA leader sequence peptide (residues 3-11) … (peptide)
peptide: VTAPRTLLL
modifications: not checked
